Common to all, as to experiment: fluorescence polarisation
(In fluorescence polarisation assays a small probe gives low polarisation when free and higher when bound to something large.)

Experiment [1] has as its target T1, histone H3 tail peptide (1–18) asymmetrically dimethylated at Arg2 (H3R2me2a) (UniProt P68431 2-19).
T1 peptide (looked up): A[Arg(Me2a)]TKQTARKSTGGKAPRK

Experiment [2] addresses T2, histone H3 tail peptide (1–18) symmetrically dimethylated at Arg2 (H3R2me2s) (UniProt P68431 2-19).
T2 peptide (looked up): A[Arg(Me2s)]TKQTARKSTGGKAPRK

Experiment [3] concerns the target T3, GST-PHD1 W335A of KDM5A (UniProt P29375 291-347, W335A).
T3 sequence (looked up): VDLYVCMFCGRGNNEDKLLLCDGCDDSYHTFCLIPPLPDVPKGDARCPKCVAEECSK

From PMC5080983 (Nature communications, 2015) come the findings set out here.

In general, Kd refers to the free concentration of one partner at which half of the binding sites on the other are occupied at equilibrium, for simple one-to-one binding. A higher Kd goes with lower affinity.

Where a chain is given by its changes, count along the chain named. Where no end group is shown, it is not given here. [ ]: non-standard residue; d: D form. Arg(Me2a) = CN(C)C(=N)NCCC[C@H](N)C(=O)O; Arg(Me2s) = CN=C(NC)NCCC[C@H](N)C(=O)O; fluorescent label = not defined here Some results are limits rather than exact numbers.

B1: GST-PHD1_(291–347) of KDM5A (domain or fragment, UniProt P29375 291-347, looked up)
chain: T3 sequence (looked up) with A45W
Regarding B1, the “fold reduction of binding affinity against unmodified H3” value in experiment [1] and in experiment [2] was around 5 fold in each case.
ARTKQTARKSTGGKAPRK-{fluorescent label} (peptide, UniProt P68431 2-19, looked up, reading uncertain) [histone H3 tail peptide H3_(1–18), unmethylated Lys4 (H3K4me0)] had a Kd in experiment [3] above 100 µM.
